Sequences and labels used below:
B1: Mutation 1-26 (antibody)
heavy: EVQMVESGGGLLKPGGSLKLSCAASGFTYSNYAMSWVRQTPEKRLEWVATISSGGSYSFYPDSVKGRFTISRDNAKNTLYLQMLSLRSEDTAMYYCARRDNYYGSTFMDYWGQGSSVTVSSAKTTPPSVYPLAPGSAAQTNSMVTLGCLVKGYFPEPVTVTWNSGSLSSGVHTFPAVLQSDLYTLSSSVTVPSSTWPSQTVTCNVAHPASSTKVDKKIVPRDCGCKPCICTVPEVSSVFIFPPKPKDVLTITLTPKVTCVVVDISKDDPEVQFSWFVDDVEVHTAQTKPREEQFNSTFRSVSELPIMHQDWLNGKEFKCRVNSAAFPAPIEKTISKTKGRPKAPQVYTIPPPKEQMAKDKVSLTCMITNFFPEDITVEWQWNGQPAENYKNTQPIMDTDGSYFVYSKLNVQKSNWEAGNTFTCSVLHEGLHNHHTEKSLSHSPG
light: DIQMTQTSSSLSASLGDRVTISCRASQEITNYLNWYQQKPDGTIKLLIYYTSRIHSGVSSRFSGSGSGTDYSLTISNLEQEDIATYFCQQGHTLPLTFDTGTKLELKRADAAPTVSIFPPSSEQLTSGGASVVCFLNNFYPKDINVKWKIDGSERQNGVLNSWTDQDSKDSTYSMSSTLTLTKDEYERHNSYTCEATHKTSTSPIVKSFNRNEC
notes: assembled FR/CDR/constant
B2: Mutation 1-28 (antibody)
heavy: EVQMVESGGGLLKPGGSLKLSCAASGFTYSNYAMSWVRQTPEKRLEWVATISSGGSYSYYPDSVKGRFTISRDNAKNTLYLQMLSLRSEDTAMYYCARRDNYPGSTFMDYWGQGSSVTVSSAKTTPPSVYPLAPGSAAQTNSMVTLGCLVKGYFPEPVTVTWNSGSLSSGVHTFPAVLQSDLYTLSSSVTVPSSTWPSQTVTCNVAHPASSTKVDKKIVPRDCGCKPCICTVPEVSSVFIFPPKPKDVLTITLTPKVTCVVVDISKDDPEVQFSWFVDDVEVHTAQTKPREEQFNSTFRSVSELPIMHQDWLNGKEFKCRVNSAAFPAPIEKTISKTKGRPKAPQVYTIPPPKEQMAKDKVSLTCMITNFFPEDITVEWQWNGQPAENYKNTQPIMDTDGSYFVYSKLNVQKSNWEAGNTFTCSVLHEGLHNHHTEKSLSHSPG
light: DIQMTQTSSSLSASLGDRVTISCRASQDITNYLNWYQQKPDGTIKLLIYYTSRLHSGVSSRFSGSGSGTDYSLTISNLEQEDIATYFCQQGHTLPLTFDTGTKLELKRADAAPTVSIFPPSSEQLTSGGASVVCFLNNFYPKDINVKWKIDGSERQNGVLNSWTDQDSKDSTYSMSSTLTLTKDEYERHNSYTCEATHKTSTSPIVKSFNRNEC
notes: assembled FR/CDR/constant
B3: Mutation 1-30 (antibody)
heavy: EVQMVESGGGLLKPGGSLKLSCAASGFTYSNYAMSWVRQTPEKRLEWVATISSGGSYSFYPDSVKGRFTISRDNAKNTLYLQMLSLRSEDTAMYYCARRDNYFGSSFMDYWGQGSSVTVSSAKTTPPSVYPLAPGSAAQTNSMVTLGCLVKGYFPEPVTVTWNSGSLSSGVHTFPAVLQSDLYTLSSSVTVPSSTWPSQTVTCNVAHPASSTKVDKKIVPRDCGCKPCICTVPEVSSVFIFPPKPKDVLTITLTPKVTCVVVDISKDDPEVQFSWFVDDVEVHTAQTKPREEQFNSTFRSVSELPIMHQDWLNGKEFKCRVNSAAFPAPIEKTISKTKGRPKAPQVYTIPPPKEQMAKDKVSLTCMITNFFPEDITVEWQWNGQPAENYKNTQPIMDTDGSYFVYSKLNVQKSNWEAGNTFTCSVLHEGLHNHHTEKSLSHSPG
light: DIQMTQTSSSLSASLGDRVTISCRASQEITNYLNWYQQKPDGTIKLLIYYTSRLHSGVSSRFSGSGSGTDYSLTISNLEQEDIATYFCQQGHTIPLTFDTGTKLELKRADAAPTVSIFPPSSEQLTSGGASVVCFLNNFYPKDINVKWKIDGSERQNGVLNSWTDQDSKDSTYSMSSTLTLTKDEYERHNSYTCEATHKTSTSPIVKSFNRNEC
notes: assembled FR/CDR/constant
B4: Mutation 1-33 (antibody)
heavy: EVQMVESGGGLLKPGGSLKLSCAASGFTFSNYAMSWVRQTPEKRLEWVATISSGGSYSFYPDSVKGRFTISRDNAKNTLYLQMLSLRSEDTAMYYCARRDNYPGSTFMDYWGQGSSVTVSSAKTTPPSVYPLAPGSAAQTNSMVTLGCLVKGYFPEPVTVTWNSGSLSSGVHTFPAVLQSDLYTLSSSVTVPSSTWPSQTVTCNVAHPASSTKVDKKIVPRDCGCKPCICTVPEVSSVFIFPPKPKDVLTITLTPKVTCVVVDISKDDPEVQFSWFVDDVEVHTAQTKPREEQFNSTFRSVSELPIMHQDWLNGKEFKCRVNSAAFPAPIEKTISKTKGRPKAPQVYTIPPPKEQMAKDKVSLTCMITNFFPEDITVEWQWNGQPAENYKNTQPIMDTDGSYFVYSKLNVQKSNWEAGNTFTCSVLHEGLHNHHTEKSLSHSPG
light: DIQMTQTSSSLSASLGDRVTISCRASQDITNYLNWYQQKPDGTIKLLIYYTSRLHSGVSSRFSGSGSGTDYSLTISNLEQEDIATYFCQQGHTIPLTFDTGTKLELKRADAAPTVSIFPPSSEQLTSGGASVVCFLNNFYPKDINVKWKIDGSERQNGVLNSWTDQDSKDSTYSMSSTLTLTKDEYERHNSYTCEATHKTSTSPIVKSFNRNEC
notes: assembled FR/CDR/constant
B5: Mutation 1-27 (antibody)
heavy: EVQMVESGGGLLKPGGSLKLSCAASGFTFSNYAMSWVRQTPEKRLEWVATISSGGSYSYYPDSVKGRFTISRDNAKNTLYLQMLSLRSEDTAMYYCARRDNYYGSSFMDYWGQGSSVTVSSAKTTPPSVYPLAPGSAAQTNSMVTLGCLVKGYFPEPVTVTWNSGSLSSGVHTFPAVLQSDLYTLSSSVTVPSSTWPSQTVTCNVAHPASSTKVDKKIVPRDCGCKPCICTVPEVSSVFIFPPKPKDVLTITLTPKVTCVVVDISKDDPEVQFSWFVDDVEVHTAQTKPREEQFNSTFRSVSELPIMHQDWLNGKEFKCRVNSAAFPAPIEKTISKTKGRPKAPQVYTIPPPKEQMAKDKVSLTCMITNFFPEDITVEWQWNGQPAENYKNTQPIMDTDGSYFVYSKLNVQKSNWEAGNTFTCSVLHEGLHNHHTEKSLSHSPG
light: DIQMTQTSSSLSASLGDRVTISCRASQDITNYLNWYQQKPDGTIKLLIYYTSRLHSGVSSRFSGSGSGTDYSLTISNLEQEDIATYFCQQGNTIPLTFDTGTKLELKRADAAPTVSIFPPSSEQLTSGGASVVCFLNNFYPKDINVKWKIDGSERQNGVLNSWTDQDSKDSTYSMSSTLTLTKDEYERHNSYTCEATHKTSTSPIVKSFNRNEC
notes: assembled FR/CDR/constant
B6: Mutation 1-34 (antibody)
heavy: EVQMVESGGGLLKPGGSLKLSCAASGFTYSNYAMSWVRQTPEKRLEWVATISSGGSYSFYPDSVKGRFTISRDNAKNTLYLQMLSLRSEDTAMYYCARRDNYPGSSFMDYWGQGSSVTVSSAKTTPPSVYPLAPGSAAQTNSMVTLGCLVKGYFPEPVTVTWNSGSLSSGVHTFPAVLQSDLYTLSSSVTVPSSTWPSQTVTCNVAHPASSTKVDKKIVPRDCGCKPCICTVPEVSSVFIFPPKPKDVLTITLTPKVTCVVVDISKDDPEVQFSWFVDDVEVHTAQTKPREEQFNSTFRSVSELPIMHQDWLNGKEFKCRVNSAAFPAPIEKTISKTKGRPKAPQVYTIPPPKEQMAKDKVSLTCMITNFFPEDITVEWQWNGQPAENYKNTQPIMDTDGSYFVYSKLNVQKSNWEAGNTFTCSVLHEGLHNHHTEKSLSHSPG
light: DIQMTQTSSSLSASLGDRVTISCRASQDITNYLNWYQQKPDGTIKLLIYYTSRIHSGVSSRFSGSGSGTDYSLTISNLEQEDIATYFCQQGNTIPLTFDTGTKLELKRADAAPTVSIFPPSSEQLTSGGASVVCFLNNFYPKDINVKWKIDGSERQNGVLNSWTDQDSKDSTYSMSSTLTLTKDEYERHNSYTCEATHKTSTSPIVKSFNRNEC
notes: assembled FR/CDR/constant
B7: Mutation 1-31 (antibody)
heavy: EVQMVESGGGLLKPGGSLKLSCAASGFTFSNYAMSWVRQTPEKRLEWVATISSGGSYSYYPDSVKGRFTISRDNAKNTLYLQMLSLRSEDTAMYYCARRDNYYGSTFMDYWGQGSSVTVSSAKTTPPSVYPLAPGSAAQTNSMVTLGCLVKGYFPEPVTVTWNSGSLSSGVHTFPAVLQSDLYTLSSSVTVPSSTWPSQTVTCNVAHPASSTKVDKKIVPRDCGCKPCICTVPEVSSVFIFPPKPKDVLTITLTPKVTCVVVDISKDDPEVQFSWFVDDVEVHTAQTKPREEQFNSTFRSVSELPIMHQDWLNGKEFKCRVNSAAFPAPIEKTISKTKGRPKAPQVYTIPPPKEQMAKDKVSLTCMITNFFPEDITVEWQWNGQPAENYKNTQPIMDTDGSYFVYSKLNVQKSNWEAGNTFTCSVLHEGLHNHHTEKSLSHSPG
light: DIQMTQTSSSLSASLGDRVTISCRASQDITNYLNWYQQKPDGTIKLLIYYTSRIHSGVSSRFSGSGSGTDYSLTISNLEQEDIATYFCQQGNTLPLTFDTGTKLELKRADAAPTVSIFPPSSEQLTSGGASVVCFLNNFYPKDINVKWKIDGSERQNGVLNSWTDQDSKDSTYSMSSTLTLTKDEYERHNSYTCEATHKTSTSPIVKSFNRNEC
notes: assembled FR/CDR/constant
B8: Mutation 1-32 (antibody)
heavy: EVQMVESGGGLLKPGGSLKLSCAASGFTYSNYAMSWVRQTPEKRLEWVATISSGGSYSYYPDSVKGRFTISRDNAKNTLYLQMLSLRSEDTAMYYCARRDNYYGSSFMDYWGQGSSVTVSSAKTTPPSVYPLAPGSAAQTNSMVTLGCLVKGYFPEPVTVTWNSGSLSSGVHTFPAVLQSDLYTLSSSVTVPSSTWPSQTVTCNVAHPASSTKVDKKIVPRDCGCKPCICTVPEVSSVFIFPPKPKDVLTITLTPKVTCVVVDISKDDPEVQFSWFVDDVEVHTAQTKPREEQFNSTFRSVSELPIMHQDWLNGKEFKCRVNSAAFPAPIEKTISKTKGRPKAPQVYTIPPPKEQMAKDKVSLTCMITNFFPEDITVEWQWNGQPAENYKNTQPIMDTDGSYFVYSKLNVQKSNWEAGNTFTCSVLHEGLHNHHTEKSLSHSPG
light: DIQMTQTSSSLSASLGDRVTISCRASQDITNYLNWYQQKPDGTIKLLIYYTSRIHSGVSSRFSGSGSGTDYSLTISNLEQEDIATYFCQQGNTIPLTFDTGTKLELKRADAAPTVSIFPPSSEQLTSGGASVVCFLNNFYPKDINVKWKIDGSERQNGVLNSWTDQDSKDSTYSMSSTLTLTKDEYERHNSYTCEATHKTSTSPIVKSFNRNEC
notes: assembled FR/CDR/constant
B9: Mutation 1-29 (antibody)
heavy: EVQMVESGGGLLKPGGSLKLSCAASGFTFSNYAMSWVRQTPEKRLEWVATISSGGSYSFYPDSVKGRFTISRDNAKNTLYLQMLSLRSEDTAMYYCARRDNYFGSSFMDYWGQGSSVTVSSAKTTPPSVYPLAPGSAAQTNSMVTLGCLVKGYFPEPVTVTWNSGSLSSGVHTFPAVLQSDLYTLSSSVTVPSSTWPSQTVTCNVAHPASSTKVDKKIVPRDCGCKPCICTVPEVSSVFIFPPKPKDVLTITLTPKVTCVVVDISKDDPEVQFSWFVDDVEVHTAQTKPREEQFNSTFRSVSELPIMHQDWLNGKEFKCRVNSAAFPAPIEKTISKTKGRPKAPQVYTIPPPKEQMAKDKVSLTCMITNFFPEDITVEWQWNGQPAENYKNTQPIMDTDGSYFVYSKLNVQKSNWEAGNTFTCSVLHEGLHNHHTEKSLSHSPG
light: DIQMTQTSSSLSASLGDRVTISCRASQEITNYLNWYQQKPDGTIKLLIYYTSRIHSGVSSRFSGSGSGTDYSLTISNLEQEDIATYFCQQGNTIPLTFDTGTKLELKRADAAPTVSIFPPSSEQLTSGGASVVCFLNNFYPKDINVKWKIDGSERQNGVLNSWTDQDSKDSTYSMSSTLTLTKDEYERHNSYTCEATHKTSTSPIVKSFNRNEC
notes: assembled FR/CDR/constant

For this test, the target named is T1, CTNI quality control recombinant antigen (human, UniProt P19429 1-210, limits assumed).
T1 construct: Recombinant antigen produced by the applicant; also called CTNI quality control recombinant protein (antigen produced by the company); cardiac troponin I
T1 sequence (P19429 whole entry): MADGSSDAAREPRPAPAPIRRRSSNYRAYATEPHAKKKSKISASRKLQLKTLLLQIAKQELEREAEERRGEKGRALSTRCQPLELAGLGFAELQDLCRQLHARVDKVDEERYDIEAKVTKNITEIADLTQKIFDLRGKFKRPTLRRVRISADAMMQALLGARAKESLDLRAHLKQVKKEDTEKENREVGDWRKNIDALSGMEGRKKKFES
The test can be described thus: BLI, antibody on AMC sensor, cTnI in solution. The procedure:
With an AMC sensor, the purified antibody was diluted to 10 μg/ml with PBST, and CTNI quality control recombinant protein (antigen produced by the company) was gradient diluted with PBST to 769.2 nmol/ml, 384.6 nmol/ml, 192.3 nmol/ml, 96.2 nmol/ml, 48.1 nmol/ml, 24 nmol/ml, 12 nmol/ml, and 0 nmol/ml.
For orientation: Biolayer interferometry detects binding as a change in optical thickness at a sensor tip.
For B1, the Kd is 1.38 nM, the koff is 3.48e-05 s⁻¹ and the association rate constant (kon) was 25200 M⁻¹ s⁻¹.

Regarding B2, the Kd was 3.68 nM, the koff was found to be 4.31e-05 s⁻¹ and the kon was 11700 M⁻¹ s⁻¹.

Consider B3, for which the Kd was 5.76 nM, the koff turned out to be 0.000163 s⁻¹ and the kon was 28300 M⁻¹ s⁻¹.

As for B4, the Kd was found to be 0.979 nM, the koff worked out at 0.000521 s⁻¹ and the kon worked out at 532000 M⁻¹ s⁻¹.

As to B5, the Kd turned out to be 6.3 nM, the koff amounted to 0.000501 s⁻¹ and the kon is 79600 M⁻¹ s⁻¹.

On to B6, for which the Kd stood at 8.44 nM, the koff amounted to 0.000255 s⁻¹ and the kon was determined as 30200 M⁻¹ s⁻¹.

On to B7, for which the Kd worked out at 8.73 nM, the koff is 0.000744 s⁻¹ and the kon turned out to be 85200 M⁻¹ s⁻¹.

B8: the Kd was determined as 8.38 nM, the koff stood at 0.000266 s⁻¹ and the kon stood at 31700 M⁻¹ s⁻¹.

B9: the Kd is 7.59 nM, the koff amounted to 0.000197 s⁻¹ and the kon came out at 26000 M⁻¹ s⁻¹.

Usually Kd stands for the equilibrium constant for the complex coming apart. As usually defined, the koff is a measure of how fast the partners let go of each other. As usually defined, the kon is the second-order rate constant of association.

These data come from patent publication US20250145694A1 (GUANGDONG FEIPENG BIOLOGICAL, published 2025).
